For one molecule, Kd results are on record in publication PMC8395645.

In the data set the target is FGFR2b Ig-like domains 2-3 (UniProt P21802-3 140-369). The data set is described as follows: ITC. On the technique in general: ITC needs no label: the signal is the heat of the interaction.

One may read the Kd as a measure of binding affinity in units of concentration. The low end stands for higher affinity, the high end for lower affinity. Turning to TGTTGGGAGGGGATGGGACGTATAGGTAAGGGCGGGGGTGGACACG (structured_DNA) [Apt_46], the Kd was 46.3 ± 16.2 nM.
